Test results from patent US20140087995A1 (published 2014).
Numbered stars: 1 amine (or outer) side, 2 acyl side, 3 side chain; on linkers, the order of the positions; unused ones are H or OH. Bridge positions count the residues as written; N and C are the ends. Side chains are listed from the residue outwards. Ends that are not written are not given here. * marks the point of attachment. C20 diacid = O=C(O)CCCCCCCCCCCCCCCCCCC(=O)*; γGlu = O=C(O)[C@H](CCC(=O)[*:2])N[*:1]; AEEA = NCCOCCOCC(=O)O

How the values were obtained:
[1] = biological target: T1, rat calcitonin receptor (rat, UniProt P32214 25-516); assay: ratio IC50 rat calcitonin receptor / IC50 rat amylin receptor
T1 construct: whole, on cells; Cell membranes of transiently transfected BHK tk'ts 13 cells (Assay VIII); also called rCTR; rCT
T1 sequence (looked up): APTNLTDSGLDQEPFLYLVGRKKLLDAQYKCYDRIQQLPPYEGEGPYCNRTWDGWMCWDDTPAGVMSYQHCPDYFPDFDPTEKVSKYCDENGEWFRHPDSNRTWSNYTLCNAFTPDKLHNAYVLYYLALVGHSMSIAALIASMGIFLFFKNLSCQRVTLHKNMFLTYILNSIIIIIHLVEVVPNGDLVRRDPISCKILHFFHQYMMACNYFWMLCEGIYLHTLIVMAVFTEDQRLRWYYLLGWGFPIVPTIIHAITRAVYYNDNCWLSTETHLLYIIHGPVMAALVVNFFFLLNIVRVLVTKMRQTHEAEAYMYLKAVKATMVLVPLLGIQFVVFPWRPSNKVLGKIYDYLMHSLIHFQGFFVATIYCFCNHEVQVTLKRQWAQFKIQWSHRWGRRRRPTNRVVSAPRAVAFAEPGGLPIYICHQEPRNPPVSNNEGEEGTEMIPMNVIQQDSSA

[2] = biological target: T2, human calcitonin receptor (human, UniProt P30988 25-474); assay: ratio IC50 human calcitonin receptor / IC50 human amylin receptor
T2 construct: whole, on cells; Cell membranes of a stably transfected BHK cell line (Assay VII); also called hCTR; hCT
T2 sequence (looked up): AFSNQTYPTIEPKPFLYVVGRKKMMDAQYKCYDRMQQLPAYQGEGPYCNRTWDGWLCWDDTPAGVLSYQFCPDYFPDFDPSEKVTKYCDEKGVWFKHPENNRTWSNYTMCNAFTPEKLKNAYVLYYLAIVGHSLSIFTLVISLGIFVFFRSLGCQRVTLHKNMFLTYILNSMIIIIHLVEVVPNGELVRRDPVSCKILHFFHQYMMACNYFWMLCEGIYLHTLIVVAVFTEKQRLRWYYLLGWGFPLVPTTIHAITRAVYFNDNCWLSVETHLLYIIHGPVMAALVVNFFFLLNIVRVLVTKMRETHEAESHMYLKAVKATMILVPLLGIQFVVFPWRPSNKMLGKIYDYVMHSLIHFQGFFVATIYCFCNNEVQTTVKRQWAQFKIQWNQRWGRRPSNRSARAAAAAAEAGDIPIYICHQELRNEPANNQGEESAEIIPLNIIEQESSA
Outline: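 Membranes (35 ng/μL final) + SPA beads, 50 mM Hepes pH 7.4 buffer with 1 mM CaCl2, 5 mM MgCl₂, 0.1% OA, 0.02% Tween20; 120 min, 25° C, shaking; centrifuged, counted; IC₅₀ by one-site binding competition.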

[3] = biological target: T1, rat calcitonin receptor; assay: SPA competition vs 125I-calcitonin, membranes with rat CTR (Assay VIII)
[4] = biological target: T3, rat amylin receptor (rat calcitonin receptor + rat RAMP 3) (rat, UniProt P32214 25-516; Q9JJ73 23-147); assay: SPA competition vs 125I-rat amylin, membranes with rat CTR + rat RAMP3 (Assay VI)
T3 construct: whole, on cells; Cell membranes of transiently transfected BHK tk'ts 13 cells (Assay VI); also called rAmylin-R; rat amylin 3(a) receptor
T3 sequence (looked up) 1: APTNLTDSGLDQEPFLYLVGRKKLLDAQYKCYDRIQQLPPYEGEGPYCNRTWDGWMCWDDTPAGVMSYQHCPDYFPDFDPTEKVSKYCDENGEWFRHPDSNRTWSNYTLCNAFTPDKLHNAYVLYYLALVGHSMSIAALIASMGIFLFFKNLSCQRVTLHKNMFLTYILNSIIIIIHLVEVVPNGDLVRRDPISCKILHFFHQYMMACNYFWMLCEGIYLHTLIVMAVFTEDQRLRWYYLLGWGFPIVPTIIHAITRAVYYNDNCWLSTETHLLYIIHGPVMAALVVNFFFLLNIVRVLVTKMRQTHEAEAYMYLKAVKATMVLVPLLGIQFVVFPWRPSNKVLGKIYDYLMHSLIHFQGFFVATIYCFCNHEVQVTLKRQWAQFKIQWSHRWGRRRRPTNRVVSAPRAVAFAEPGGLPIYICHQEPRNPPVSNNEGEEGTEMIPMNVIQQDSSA
T3 sequence (looked up) 2: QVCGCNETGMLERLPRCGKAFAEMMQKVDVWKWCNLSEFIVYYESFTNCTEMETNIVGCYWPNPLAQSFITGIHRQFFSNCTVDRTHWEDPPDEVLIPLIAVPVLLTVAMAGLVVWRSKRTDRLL

Binder	Ratio rCT/rAmylin binding [1]	Ratio hCT/hAmylin binding [2]	IC50 [3] [nM]	IC50 [4] [nM]
{C20 diacid-γGlu}-KCNTATCATQRLAEFLRHSSPNFGAIPSSTNVGKNTY-NH2 (disulfide 2-7; SMILES CC[C@H](C)[C@H](NC(=O)[C@H](C)NC(=O)CNC(=O)[C@H](Cc1ccccc1)NC(=O)[C@H](CC(N)=O)NC(=O)[C@@H]1CCCN1C(=O)[C@H](CO)NC(=O)[C@H](CO)NC(=O)[C@H](Cc1c[nH]cn1)NC(=O)[C@H](CCCNC(=N)N)NC(=O)[C@H](CC(C)C)NC(=O)[C@H](Cc1ccccc1)NC(=O)[C@H](CCC(=O)O)NC(=O)[C@H](C)NC(=O)[C@H](CC(C)C)NC(=O)[C@H](CCCNC(=N)N)NC(=O)[C@H](CCC(N)=O)NC(=O)[C@@H](NC(=O)[C@H](C)NC(=O)[C@@H]1CSSC[C@H](NC(=O)[C@H](CCCCN)NC(=O)CC[C@H](NC(=O)CCCCCCCCCCCCCCCCCCC(=O)O)C(=O)O)C(=O)N[C@@H](CC(N)=O)C(=O)N[C@@H]([C@@H](C)O)C(=O)N[C@@H](C)C(=O)N[C@@H]([C@@H](C)O)C(=O)N1)[C@@H](C)O)C(=O)N1CCC[C@H]1C(=O)N[C@@H](CO)C(=O)N[C@@H](CO)C(=O)N[C@H](C(=O)N[C@@H](CC(N)=O)C(=O)N[C@H](C(=O)NCC(=O)N[C@@H](CCCCN)C(=O)N[C@@H](CC(N)=O)C(=O)N[C@H](C(=O)N[C@@H](Cc1ccc(O)cc1)C(N)=O)[C@@H](C)O)C(C)C)[C@@H](C)O, Acylated analogue of human amylin; also called compound 36)	32.4	15.7	60.1	1.86
K([AEEA-C20 diacid])CNTATCATQRLANFLRHSSPNFGAIPSSTNVGSNTY-NH2 (disulfide 2-7; N-terminus assumed; SMILES CC[C@H](C)[C@H](NC(=O)[C@H](C)NC(=O)CNC(=O)[C@H](Cc1ccccc1)NC(=O)[C@H](CC(N)=O)NC(=O)[C@@H]1CCCN1C(=O)[C@H](CO)NC(=O)[C@H](CO)NC(=O)[C@H](Cc1c[nH]cn1)NC(=O)[C@H](CCCNC(=N)N)NC(=O)[C@H](CC(C)C)NC(=O)[C@H](Cc1ccccc1)NC(=O)[C@H](CC(N)=O)NC(=O)[C@H](C)NC(=O)[C@H](CC(C)C)NC(=O)[C@H](CCCNC(=N)N)NC(=O)[C@H](CCC(N)=O)NC(=O)[C@@H](NC(=O)[C@H](C)NC(=O)[C@@H]1CSSC[C@H](NC(=O)[C@@H](N)CCCCNC(=O)COCCOCCNC(=O)CCCCCCCCCCCCCCCCCCC(=O)O)C(=O)N[C@@H](CC(N)=O)C(=O)N[C@@H]([C@@H](C)O)C(=O)N[C@@H](C)C(=O)N[C@@H]([C@@H](C)O)C(=O)N1)[C@@H](C)O)C(=O)N1CCC[C@H]1C(=O)N[C@@H](CO)C(=O)N[C@@H](CO)C(=O)N[C@H](C(=O)N[C@@H](CC(N)=O)C(=O)N[C@H](C(=O)NCC(=O)N[C@@H](CO)C(=O)N[C@@H](CC(N)=O)C(=O)N[C@H](C(=O)N[C@@H](Cc1ccc(O)cc1)C(N)=O)[C@@H](C)O)C(C)C)[C@@H](C)O, Acylated analogue of human amylin; also called compound 43) [N^ε1-[2-[2-[2-(19-carboxynonadecanoylamino)ethoxy]ethoxy]acetyl]-[Arg17,Pro21,Pro27]-h-amylin]	69.1	34.7	7.6	0.11
K([AEEA-γGlu-C20 diacid])CNTATCATQRLANFLRHSSPNFGAIPSSTNVGSNTY-NH2 (disulfide 2-7; N-terminus assumed; SMILES CC[C@H](C)[C@H](NC(=O)[C@H](C)NC(=O)CNC(=O)[C@H](Cc1ccccc1)NC(=O)[C@H](CC(N)=O)NC(=O)[C@@H]1CCCN1C(=O)[C@H](CO)NC(=O)[C@H](CO)NC(=O)[C@H](Cc1c[nH]cn1)NC(=O)[C@H](CCCNC(=N)N)NC(=O)[C@H](CC(C)C)NC(=O)[C@H](Cc1ccccc1)NC(=O)[C@H](CC(N)=O)NC(=O)[C@H](C)NC(=O)[C@H](CC(C)C)NC(=O)[C@H](CCCNC(=N)N)NC(=O)[C@H](CCC(N)=O)NC(=O)[C@@H](NC(=O)[C@H](C)NC(=O)[C@@H]1CSSC[C@H](NC(=O)[C@@H](N)CCCCNC(=O)COCCOCCNC(=O)CC[C@H](NC(=O)CCCCCCCCCCCCCCCCCCC(=O)O)C(=O)O)C(=O)N[C@@H](CC(N)=O)C(=O)N[C@@H]([C@@H](C)O)C(=O)N[C@@H](C)C(=O)N[C@@H]([C@@H](C)O)C(=O)N1)[C@@H](C)O)C(=O)N1CCC[C@H]1C(=O)N[C@@H](CO)C(=O)N[C@@H](CO)C(=O)N[C@H](C(=O)N[C@@H](CC(N)=O)C(=O)N[C@H](C(=O)NCC(=O)N[C@@H](CO)C(=O)N[C@@H](CC(N)=O)C(=O)N[C@H](C(=O)N[C@@H](Cc1ccc(O)cc1)C(N)=O)[C@@H](C)O)C(C)C)[C@@H](C)O, Acylated analogue of human amylin; also called compound 41)	54	49.9	74.1	1.37
{C20 diacid-γGlu}-GRCNTATCATQRLANFLRHSSPNFGAIPSSTNVGSHTY-NH2 (disulfide 3-8; SMILES CC[C@H](C)[C@H](NC(=O)[C@H](C)NC(=O)CNC(=O)[C@H](Cc1ccccc1)NC(=O)[C@H](CC(N)=O)NC(=O)[C@@H]1CCCN1C(=O)[C@H](CO)NC(=O)[C@H](CO)NC(=O)[C@H](Cc1c[nH]cn1)NC(=O)[C@H](CCCNC(=N)N)NC(=O)[C@H](CC(C)C)NC(=O)[C@H](Cc1ccccc1)NC(=O)[C@H](CC(N)=O)NC(=O)[C@H](C)NC(=O)[C@H](CC(C)C)NC(=O)[C@H](CCCNC(=N)N)NC(=O)[C@H](CCC(N)=O)NC(=O)[C@@H](NC(=O)[C@H](C)NC(=O)[C@@H]1CSSC[C@H](NC(=O)[C@H](CCCNC(=N)N)NC(=O)CNC(=O)CC[C@H](NC(=O)CCCCCCCCCCCCCCCCCCC(=O)O)C(=O)O)C(=O)N[C@@H](CC(N)=O)C(=O)N[C@@H]([C@@H](C)O)C(=O)N[C@@H](C)C(=O)N[C@@H]([C@@H](C)O)C(=O)N1)[C@@H](C)O)C(=O)N1CCC[C@H]1C(=O)N[C@@H](CO)C(=O)N[C@@H](CO)C(=O)N[C@H](C(=O)N[C@@H](CC(N)=O)C(=O)N[C@H](C(=O)NCC(=O)N[C@@H](CO)C(=O)N[C@@H](Cc1c[nH]cn1)C(=O)N[C@H](C(=O)N[C@@H](Cc1ccc(O)cc1)C(N)=O)[C@@H](C)O)C(C)C)[C@@H](C)O, Acylated analogue of human amylin, extended by one residue at the N-terminus; also called compound 47)	84.3	44.9	17.1	0.203
KCNTATCATQRLANFLRHSSPNFGAIPSSTNVGSNTY (C20 diacid-gGlu-2xOEG on alpha-amino of the N-terminal residue; Cys2-Cys7 disulfide; C-terminal amide (as human amylin), Acylated analogue of human amylin; also called compound 24)	116	90	350	3.01
{C20 diacid-γGlu}-KCNTATCATQRLAEFLRHSSPNFGPILPPTNVGSNTY-NH2 (disulfide 2-7; SMILES CC[C@H](C)[C@H](NC(=O)[C@@H]1CCCN1C(=O)CNC(=O)[C@H](Cc1ccccc1)NC(=O)[C@H](CC(N)=O)NC(=O)[C@@H]1CCCN1C(=O)[C@H](CO)NC(=O)[C@H](CO)NC(=O)[C@H](Cc1c[nH]cn1)NC(=O)[C@H](CCCNC(=N)N)NC(=O)[C@H](CC(C)C)NC(=O)[C@H](Cc1ccccc1)NC(=O)[C@H](CCC(=O)O)NC(=O)[C@H](C)NC(=O)[C@H](CC(C)C)NC(=O)[C@H](CCCNC(=N)N)NC(=O)[C@H](CCC(N)=O)NC(=O)[C@@H](NC(=O)[C@H](C)NC(=O)[C@@H]1CSSC[C@H](NC(=O)[C@H](CCCCN)NC(=O)CC[C@H](NC(=O)CCCCCCCCCCCCCCCCCCC(=O)O)C(=O)O)C(=O)N[C@@H](CC(N)=O)C(=O)N[C@@H]([C@@H](C)O)C(=O)N[C@@H](C)C(=O)N[C@@H]([C@@H](C)O)C(=O)N1)[C@@H](C)O)C(=O)N[C@@H](CC(C)C)C(=O)N1CCC[C@H]1C(=O)N1CCC[C@H]1C(=O)N[C@H](C(=O)N[C@@H](CC(N)=O)C(=O)N[C@H](C(=O)NCC(=O)N[C@@H](CO)C(=O)N[C@@H](CC(N)=O)C(=O)N[C@H](C(=O)N[C@@H](Cc1ccc(O)cc1)C(N)=O)[C@@H](C)O)C(C)C)[C@@H](C)O, Acylated analogue of human amylin; also called compound 6)	21.7	20	51.5	2.37
